Source: US20100196385A1 (AstraZeneca / MedImmune, published 2010)

B1: 4B4 (antibody, IgG4, V domains shown)
VH: QVLLIQSGAEVKKPGASVQVSCKASGYTFTNYGVIWVRQAPGQGLEYMGWISAYNGNTNYAQKLQDRVTMTSDTSTTTAYMELRSLRSDDTAVYYCARELGSSFDYWGQGTLVTVSS
VL: SYELTQPPSVSVSPGQTARITCSGDALPKKYAYWYQQKSGQAPVLVIYEDIKRPSGIPERFSGSSSGTMATLTISGAQVEDEADYYCFSTDNSGDHSVFGGGTKLTVL
notes: Fully human; used for IgG4 rows and where no isotype is printed; also called 4B4 IgG4; 4B4.1
B2: 21H3 (antibody, IgG4, V domains shown)
VH: QVQLVQSGAEVKKPGASVKVSCKASGYTFTNYGITWVRQAPGQGPEWMGWISAYNGNTNYAQKLQDRVTVTTDTSTSTAYMELRSLRSDDTAVYYCARDRVPRIPVTTEAFDIWGQGTMVTVSS
VL: QSVLTQPPSASGTPGQRVTISCSGSSSNIGSYFVYWYQQLPGTAPKLLIYRNNQRPSGVPDRFSGSESGTSASLAISGLRSEDEADYYCAAWDDSLSGHWVFGGGTRLTVL
notes: Fully human; used for IgG4 rows and where no isotype is printed; also called 21H3 IgG4

Biological target: T1, full length human DLL4 (human, UniProt Q9NR61 27-685)
T1 construct: whole, on cells; also called native DLL4 expressed in HEK293 cells
Assay: FACS competition vs 0.25 µg/ml human Notch1/Fc, HEK293 cells with human DLL4
Procedure: Further experiments were performed on selected antibodies using HEK293 cells that were stably transfected with either human, mouse or cynomolgus monkey DLL4 using retroviral constructs. In these experiments, anti-DLL4 antibodies (final concentration: 10-0.01 μg/ml) diluted in PBS containing 2% FCS were added to DLL4-expressing HEK 293 cells (50000 cells/well diluted in PBS containing 2% FCS) and incubated for 1 h at 4° C. Subsequently, Alexa-647 labeled human, rat or APC labeled mouse Notch1/Fc (e.g. R&D Systems, catalog #3647-TK-050, 1057-TK-050, 5267-TK-050, respectively) was added at a final concentration of 0.01-0.5 μg/ml and plates were incubated for a further 2 h at 4° C. prior to washing and reading on a FACSCalibur instrument.

T1 sequence (Q9NR61 27-685): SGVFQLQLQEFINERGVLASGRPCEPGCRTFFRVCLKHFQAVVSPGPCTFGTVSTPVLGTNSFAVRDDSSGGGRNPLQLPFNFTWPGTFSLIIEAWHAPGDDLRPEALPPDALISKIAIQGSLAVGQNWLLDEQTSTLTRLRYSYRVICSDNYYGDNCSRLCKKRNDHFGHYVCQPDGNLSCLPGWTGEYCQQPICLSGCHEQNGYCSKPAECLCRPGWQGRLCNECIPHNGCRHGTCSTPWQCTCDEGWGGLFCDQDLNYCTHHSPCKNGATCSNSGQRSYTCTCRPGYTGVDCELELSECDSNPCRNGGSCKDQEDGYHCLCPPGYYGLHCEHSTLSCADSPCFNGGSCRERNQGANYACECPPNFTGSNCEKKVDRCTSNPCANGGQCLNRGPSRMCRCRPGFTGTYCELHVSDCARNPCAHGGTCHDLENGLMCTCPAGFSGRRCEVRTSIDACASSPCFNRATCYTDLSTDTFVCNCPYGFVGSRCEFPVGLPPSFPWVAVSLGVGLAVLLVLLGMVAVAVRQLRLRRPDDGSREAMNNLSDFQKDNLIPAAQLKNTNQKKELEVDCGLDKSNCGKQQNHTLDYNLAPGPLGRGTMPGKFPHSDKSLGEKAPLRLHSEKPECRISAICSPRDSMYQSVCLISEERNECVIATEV

Binder | IC50 [nM]
B1 | 1.62
B2 | 1.59
